Results reported in the Human Domainome abundance scans (Beltran et al. 2025).

B1: Histone-lysine N-methyltransferase 2A, residues 1148 to 1194; numbered along this chain, Q03164 (parent)
chain: KGRRSRRCGQCPGCQVPEDCGVCTNCLDKPKFGGRNIKKQCCKMRKC
B2: POU domain, class 3, transcription factor 3, residues 320 to 388; numbered along this chain, P20264 (parent)
chain: DDLEQFAKQFKQRRIKLGFTQADVGLALGTLYGNVFSQTTICRFEALQLSFKNMCKLKPLLNKWLEEAD

Variants of: B1
Test: abundance fitness (aPCA) (normalised: wild type 0, dead -1); higher = more abundant; growth selection in yeast, the domain comes from the species named
Settings: Homo sapiens

Abundance fitness: each site, then its substitutions
R3: H -0.403; V 0.11; I -0.281; A -0.123; C 0.012; G -0.091; F 0.097; Y -0.301; E -0.038; W -0.518; K 0.161; Q 0.023; D -0.185; M 0.056; N 0.017
R4: T 0.148; H -0.279; P -0.01; L -0.06; W -0.54; A -0.035; M 0.141; S -0.004; K 0.186; F -0.15; Y -0.184; G 0.125; V 0.103; D 0.045; E 0.068; I -0.074
R6: I 0.019; Y -0.207; F 0.1; D 0.143; K -0.143; A 0.182; P 0.054; H 0.089; S 0.06; L -0.014; W -0.064; N 0.158; M -0.171; E 0.138; C -0.407; G -0.088; T -0.179; V -0.204
Q10: A 0.031; G -0.235; I -0.02; S -0.069; W -0.381; C -0.459; V -0.296; E -0.183; T -0.23; M -0.246; L -0.322; D -0.589; F -0.284; N -0.436; R -0.234; H -0.189; P -0.48
R7: C -0.493; Y -0.214; T -0.153; I -0.17; F -0.192; A -0.09; Q -0.188; N -0.041; V 0.075; P 0.294; G -0.036; K -0.103; H -0.435; L -0.092; W -0.204; S 0.019; D 0.159
G2: S -0.213; R -0.413; D 0.186; L -0.303; E 0.013; K -0.569; A -0.403; Q -0.007; V -0.275; W -0.79; F -0.701
S5: E -0.091; P -0.137; I -0.604; C -0.644; K -0.093; M -0.236; T -0.24; A -0.19; L -0.132; R -0.226; F 0.163; D -0.037; Y -0.459; H -0.25; G -0.169; Q 0.07; N -0.161
G9: V -0.726; D -0.773; A -0.519; T -0.653; F -0.469; R -0.55; Q -0.299; E -0.866; P -0.738; Y -0.42; W -0.553; I -0.452; L -0.562; H -0.39; M -0.256; C -0.145
C8: I -0.585; R -0.809; T -0.7; S -0.626; Q -0.568; E -0.506; F -0.704; M -0.496; V -0.691; W -0.863; Y -0.944; D -0.442; A -0.786; P -0.613; L -0.648; K -0.583; G -0.457
K1: G -0.676; S -0.232; V -0.43; T -0.659; P -0.662; M -0.337; E 0.47; D -0.341; R -0.285; Y -0.299

Variants of: B2
Test: as above
Settings: Homo sapiens

Abundance fitness, by site and new letter:
N62: K -0.12; S 0.03; W -0.739; V 0.148; A 0.001; D 0.024; H 0.11; Q -0.028; G 0.052; L -0.126; R -0.063
W64: A -0.737; P -0.746; M -0.83; S -0.757; R -0.582; V -0.305; L -0.913; E -0.792; H -0.778; Q -0.8; G -0.77; I -0.715; T -1.15
M54: S -0.483; T -0.733; R -0.909; W -0.801
P59: V -0.377; G -0.166; W -0.986; R -0.389; Q -0.333; K -0.247; L -0.378; S -0.398; T -0.459; C -0.064; E -0.353; M -0.279
C55: W -0.177; P -0.874; I -0.046; L -0.156; H -0.199; F 0.253; T -0.186; K -0.009; N -0.102; V 0.019; Q 0.209; S -0.102; G -0.354; E -0.255; Y -0.269; M -0.032
K63: I -0.697; P -0.77; Y -0.53; D -0.349; W -0.658; A -0.129; V -0.743; M -0.435; F -0.149; N -0.261; S -0.317; L -0.493; H -0.189; C -0.147; G -0.074; Q -0.066; E -0.519
K56: S -0.181; H -0.61; P -0.848; L -0.079; M -0.173; E -0.066; N -0.44; C -0.391; R 0.017; I -0.063; W -0.548; F -0.11; G -0.539; Y -0.753; D -0.163
K58: C 0.152; T -0.892; G -0.852; R 0.031; V -0.398; I -0.416; L -0.875; A -0.337; S -0.796
D69: L -0.436; S -0.573; P -0.128; E -0.183; T -0.314
E66: M 0.002; S -0.502; H 0.082; C -0.046; V -0.225; R -0.146; I 0.075; F -0.127; K -0.123; G -0.889; D 0.402; N 0.122; Y -0.635; L -0.428; T -0.132
A68: L -0.705; Q -0.587; Y -0.176; E -0.6; C -0.485; H -0.392; M 0.303; S -0.082; G -0.62; R -0.248; N -0.163
L61: A -0.803; W -0.881; P -0.928; K -0.66; E -0.99; R -0.97; I -0.696; C -0.796; G -0.891; T -0.513; Q -0.811; S -0.977; M -0.522; V -0.513
L57: T -0.698; S -0.572; P 0.029; K -0.645; W -0.401; V -0.535; H -0.333; R -0.715; M -0.279; A -0.602; G -0.78; E -1.16
L65: S -0.58; I -0.513; T -0.732; R -0.674; K -0.211; W -0.297; M -0.185; Q -0.73; C -0.846; G -0.935; F -0.633
E67: T -0.134; L 0.333; G -0.084; Q -0.227; V -0.321; K -0.029; A -0.032; R -0.015; S 0.196
L60: R -0.491; K -0.334; V -0.309; W -0.227; S -0.563; A -0.51
